In article doi:10.1101/2025.07.28.667166:

What was measured:
Test in all cases: NMR
Cys31 = Cys31 (UniProt position 31, FGTDWCGHCQA); details: 298 K; reduced (with DTT), 1 mM protein
Cys34 = Cys34 (UniProt position 34, DWCGHCQAAQP); details: 298 K; reduced (with DTT), 1 mM protein
His33 = His33 (UniProt position 33, TDWCGHCQAAQ); details: 298 K, 1 mM protein

## Patrx2 (atypical thioredoxin, PA2694) (Pseudomonas aeruginosa)
Cys31
  pKa: 5.8
Cys34
  pKa: greater than 11.0
His33; oxidised (C31-C34 disulfide, without DTT)
  pKa: less than 5
His33; reduced (with DTT)
  pKa: 6.3
